Source: patent US20250011368A1, “DLL3 TARGETING PEPTIDES AND CONSTRUCTS THEREOF” (MARIANA ONCOLOGY INC., priority 2023, published 2025)
Values belong to the binder of their own block, whether it stands above or below them. Numbered stars: 1 amine (or outer) side, 2 acyl side, 3 side chain; on linkers, the order of the positions; unused ones are H or OH. Bridge positions count the residues as written; N and C are the ends. Square brackets hold non-standard residues; d marks the D form. * marks the point of attachment. Ala(piperidin-4-yl) = O=C([C@H](CC1CCN([*:3])CC1)N[*:1])[*:2]; DOTA = O=C(O)CN1CCN(CC(=O)O)CCN(CC(=O)*)CCN(CC(=O)O)CC1; Trp(5-F) = N[C@@H](Cc1c[nH]c2ccc(F)cc12)C(=O)O; Trp(7-aza) = N[C@@H](Cc1c[nH]c2ncccc12)C(=O)O; Pro(trans-4-F) = O=C(O)[C@@H]1C[C@@H](F)CN1; 2Nal = N[C@@H](Cc1ccc2ccccc2c1)C(=O)O; 4Pal = N[C@@H](Cc1ccncc1)C(=O)O; Cha = N[C@@H](CC1CCCCC1)C(=O)O

Key:
DLL3 on SHP-77 cells = target: T1, DLL3 on SHP-77 cells (human, UniProt Q9NYJ7 27-618); assay: 177Lu-peptide bound to SHP-77 cells, gamma counting; letter grade, key in paragraph 629
T1 construct: SHP-77 cells are human-derived, non-engineered SCLC cells
T1 sequence: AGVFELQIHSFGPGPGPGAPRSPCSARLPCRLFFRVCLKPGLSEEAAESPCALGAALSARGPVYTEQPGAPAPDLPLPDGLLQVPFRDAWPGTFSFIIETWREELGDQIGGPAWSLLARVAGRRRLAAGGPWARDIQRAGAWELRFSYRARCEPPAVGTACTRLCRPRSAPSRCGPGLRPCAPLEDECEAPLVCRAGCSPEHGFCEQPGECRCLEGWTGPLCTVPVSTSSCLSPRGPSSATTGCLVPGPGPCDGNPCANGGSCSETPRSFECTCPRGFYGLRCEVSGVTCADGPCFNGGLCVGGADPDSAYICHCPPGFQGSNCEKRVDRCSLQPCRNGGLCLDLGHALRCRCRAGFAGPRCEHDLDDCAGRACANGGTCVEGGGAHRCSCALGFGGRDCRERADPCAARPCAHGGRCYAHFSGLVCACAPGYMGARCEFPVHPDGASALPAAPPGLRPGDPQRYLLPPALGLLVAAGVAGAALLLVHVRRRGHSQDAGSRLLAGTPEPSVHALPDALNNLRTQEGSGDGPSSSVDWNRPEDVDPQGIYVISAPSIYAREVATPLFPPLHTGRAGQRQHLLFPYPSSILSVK
Method: The study was conducted using SHP-77, CT26.WT, and CT26.DLL3 cells (Table 7) Adherent cell studies: The cells were cultured in appropriate culture media (20 mL) in tissue culture treated T150 flasks at 37° C. and 5% CO2. Adherent cells were detached (60-70% confluent) using 5 mL Versene at 37° C. for 3 minutes. After confirming the viability using countess and count of detached cells using Trypan blue, the cells were centrifuged at 4° C. for 5 minutes (1,000 rpm). The cell pellet obtained was washed once with PBS and resuspended in 1% PBSA to obtain the desired cell concentration (5-25 million cells/mL).
Total uptake: Cells were incubated with 300 μL (0.8 μCi) of the incubation buffer (containing radiolabeled peptide [¹⁷⁷Lu] Lu-test peptide) for 1 hour at 37° C. (Table 8). Post incubation, the cells were pelleted and washed 2 times using cold PBS+1% BSA. The supernatant and washes were combined and counted together as “unbound fraction” in a gamma counter. The cells were then resuspended in 300 μL of 1% PBS+1% BSA and counted in the gamma counter as “bound fraction”.

[1] = target: DLL3 on CT26.DLL3 cells (Homo sapiens (Human)) (UniProt Q9NYJ7); assay: 177Lu-peptide bound to CT26.DLL3 cells, gamma counting; letter grade, key in paragraph 629
[2] = target: T2, Biotinylated human DLL3 (Delta Like Canonical Notch Ligand 3) (human, UniProt Q9NYJ7 27-492, limits assumed, biotinylated (site not stated)); assay: SPR; letter grade, key in paragraph 614
T2 construct: also called Delta-like protein 3; biotinylated target ligand human DLL3
T2 sequence: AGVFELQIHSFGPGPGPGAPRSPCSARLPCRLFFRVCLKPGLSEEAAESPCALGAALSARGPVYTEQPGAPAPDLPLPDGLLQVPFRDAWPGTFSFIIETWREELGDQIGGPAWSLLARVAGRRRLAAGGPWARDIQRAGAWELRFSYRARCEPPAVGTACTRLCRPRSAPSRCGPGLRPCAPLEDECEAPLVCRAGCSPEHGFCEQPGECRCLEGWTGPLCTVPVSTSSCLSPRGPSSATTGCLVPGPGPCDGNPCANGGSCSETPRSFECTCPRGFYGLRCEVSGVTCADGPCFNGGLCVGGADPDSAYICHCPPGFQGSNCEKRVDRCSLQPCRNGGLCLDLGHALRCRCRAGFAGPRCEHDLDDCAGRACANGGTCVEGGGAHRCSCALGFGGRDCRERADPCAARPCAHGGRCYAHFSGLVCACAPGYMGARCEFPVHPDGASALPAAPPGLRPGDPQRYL
Method: (§1) Biotinylated target ligand human DLL3 was immobilized on a streptavidin sensor chip. A reference surface was set up for nonspecific binding and refractive index changes. For analysis of the kinetics of interactions, varying concentrations of samples were injected at a flow rate of 100 μL/minute using running buffer containing 20 mM phosphate buffer with 2.7 mM KCl, 137 mM NaCl, 0.05% Surfactant P20 and 2% DMSO. Sensorgram curves were fitted with 1:1 binding model, and affinity and kinetic parameters were obtained using Biacore Insight evaluation 4.0. software.

[3] = target: Biotinylated human DLL3 (Delta Like Canonical Notch Ligand 3) (human) (UniProt Q9NYJ7); assay: SPR; letter grade, key in paragraph 614
[4] = target: T2, Biotinylated human DLL3 (Delta Like …); assay: SPR; letter grade, key in paragraph 614; upper limit of grade B
Method: as §1

[5] = target: T2, Biotinylated human DLL3 (Delta Like …); assay: SPR; letter grade, key in paragraph 614; lower limit of grade B
Method: as §1

% Binding (DLL3 on SHP-77 cells): < 25%
% Binding [1]: < 25%
Binder: Ac-WTIC[Ala(piperidin-4-yl)]N[2Nal]KDCWP[dK](DOTA)-NH2 (disulfide 4-10; not fully specified (residue 8); also: 177Lu chelated in DOTA) [[177Lu]Lu-labelled Cpd No. 326]

Kd [2]: ≤ 1 nM
Binder: Ac-WTICNN[2Nal][4Pal]DCWP[dK](DOTA)-NH2 (disulfide 4-10; also: natLu in the DOTA chelator, * = [natLu]Lu-labelled peptide) [[natLu]Lu-labelled Cpd No. 367]

Kd [2]: ≤ 1 nM
B1: Cpd No. 451 (peptide)
peptide: Ac-WTICKN[2Nal]HDCWP[dK](DOTA)-NH2
modifications: disulfide 4-10
SMILES: CC[C@H](C)[C@H](NC(=O)[C@@H](NC(=O)[C@H](Cc1c[nH]c2ccccc12)NC(C)=O)[C@@H](C)O)C(=O)N[C@H]1CSSC[C@@H](C(=O)N[C@@H](Cc2c[nH]c3ccccc23)C(=O)N2CCC[C@H]2C(=O)N[C@H](CCCCNC(=O)CN2CCN(CC(=O)O)CCN(CC(=O)O)CCN(CC(=O)O)CC2)C(N)=O)NC(=O)[C@H](CC(=O)O)NC(=O)[C@H](Cc2c[nH]cn2)NC(=O)[C@H](Cc2ccc3ccccc3c2)NC(=O)[C@H](CC(N)=O)NC(=O)[C@H](CCCCN)NC1=O

% Binding [1]: < 25%
Binder: Ac-[Trp(5-F)]T[Cha]CNN[2Nal]HDC[Trp(7-aza)][Pro(trans-4-F)][dK](DOTA)-NH2 (disulfide 4-10; also: 177Lu complexed in the DOTA chelator) [[177Lu]Lu-labelled Cpd No. 245]

Kd [2]: ≤ 1 nM
B2: Cpd No. 367 (peptide)
peptide: Ac-WTICNN[2Nal][4Pal]DCWP[dK](DOTA)-NH2
modifications: disulfide 4-10
SMILES: CC[C@H](C)[C@H](NC(=O)[C@@H](NC(=O)[C@H](Cc1c[nH]c2ccccc12)NC(C)=O)[C@@H](C)O)C(=O)N[C@H]1CSSC[C@@H](C(=O)N[C@@H](Cc2c[nH]c3ccccc23)C(=O)N2CCC[C@H]2C(=O)N[C@H](CCCCNC(=O)CN2CCN(CC(=O)O)CCN(CC(=O)O)CCN(CC(=O)O)CC2)C(N)=O)NC(=O)[C@H](CC(=O)O)NC(=O)[C@H](Cc2ccncc2)NC(=O)[C@H](Cc2ccc3ccccc3c2)NC(=O)[C@H](CC(N)=O)NC(=O)[C@H](CC(N)=O)NC1=O

Kd [3]: < 1 nM
Binder: Ac-[Trp(5-F)]T[Cha]CNN[2Nal]HDC[Trp(7-aza)][Pro(trans-4-F)][dK](DOTA)-NH2 (disulfide 4-10) [Cpd No. 245]

Kd [4]: ≤ 10 nM
Kd [5]: > 1 nM
Binder: Ac-WTICNNWHDCWP[dK](DOTA)-NH2 (disulfide 4-10) [Cpd No. 23]
